Patent publication US20040241165A1 (Takeda / Millennium, published 2004)
No end group written: not given here.

What was measured:
[1] = biological target: human-type OT7T022 (hOT7T022) G protein-coupled receptor protein (human) (UniProt Q9GZQ6); test: binding inhibition: displacement of 125I-Tyr-hRFRP-3(8) from membrane fraction of human-type OT7T022-expressing CHO cells
[2] = biological target: human-type OT7T022 (hOT7T022) G protein-coupled receptor protein (human) (UniProt Q9GZQ6); test: cell-based or functional assay
[3] = biological target: T1, human-type OT7T022 (hOT7T022) G protein-coupled receptor protein (human, UniProt Q9GZQ6 1-430); test: binding inhibition: displacement of 125I-Tyr-hRFRP-3(8) from membrane fraction of human-type OT7T022-expressing CHO cells
T1 construct: Expressed on CHO cells (cAMP assays); also called human OT7T022 receptor
Experimental: An assay buffer [50 mM Tris-HCl, pH 7.5, 5 mM EDTA, 0.1% bovine serum albumin (Sigma), 0.5 mM PMSF (Wako Purechemical Industries), 20 μg/ml leupeptin (Peptide Institute, Inc.), 0.1 μg/ml pepstatin A (Peptide Institute, Inc.), 4 μg/ml E64 (Peptide Institute, Inc.) and 10 mM MgCl₂] was prepared. With this buffer, the membrane fraction from human-type OT7T022-expressing CHO cells was diluted to give a concentration of 1 μg/25 μl. […] Sample solutions prepared, NSB and the assay buffer were dispensed into polypropylene 96-well plates in quadruplicate as total 50 μl/well. […] Twenty-five microliter of the membrane fraction solution from human-type OT7T022-expressing CHO cells was added thereto, agitated with a plate mixer and incubated at room temperature for 1.5 hr. Using a cell harvester for 96-well plates, the contents of each well were adsorbed onto a filter unit (GF/C, treated with polyethylene imine) pre-moisturized with washing buffer (50 mM Tris-HCl, pH 7.5). After washing 5 times with the washing buffer, the adsorbate was dried thoroughly. The lower part of the filter unit was sealed. Then, 50 μl of liquid scintillator was added to each well and the upper part of the filter unit was sealed. Radioactivity was measured with a Top Count (Packard), and data were analyzed in triplicate.

[4] = biological target: T1, human-type OT7T022 (hOT7T022) G …; test: cell-based or functional assay
[5] = biological target: T1, human-type OT7T022 (hOT7T022) G …; test: cell-based or functional assay; remark: listed apart in the source
[6] = biological target: G protein-coupled receptor protein rOT7T022L (rat, UniProt Q9EP86 1-432); test: cell-based or functional assay
G protein-coupled receptor protein rOT7T022L, sequence (Q9EP86 whole entry): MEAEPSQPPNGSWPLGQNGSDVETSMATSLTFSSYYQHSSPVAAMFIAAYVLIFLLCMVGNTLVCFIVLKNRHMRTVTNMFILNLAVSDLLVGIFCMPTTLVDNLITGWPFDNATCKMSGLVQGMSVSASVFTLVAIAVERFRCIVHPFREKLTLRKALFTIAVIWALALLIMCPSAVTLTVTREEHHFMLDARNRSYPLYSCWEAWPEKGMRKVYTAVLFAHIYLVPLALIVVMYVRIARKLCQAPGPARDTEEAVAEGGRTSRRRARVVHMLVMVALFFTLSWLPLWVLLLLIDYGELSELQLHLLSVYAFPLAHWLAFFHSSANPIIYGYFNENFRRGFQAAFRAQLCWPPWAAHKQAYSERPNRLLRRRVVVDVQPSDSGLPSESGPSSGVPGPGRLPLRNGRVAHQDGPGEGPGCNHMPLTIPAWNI

T1 sequence (Q9GZQ6 whole entry): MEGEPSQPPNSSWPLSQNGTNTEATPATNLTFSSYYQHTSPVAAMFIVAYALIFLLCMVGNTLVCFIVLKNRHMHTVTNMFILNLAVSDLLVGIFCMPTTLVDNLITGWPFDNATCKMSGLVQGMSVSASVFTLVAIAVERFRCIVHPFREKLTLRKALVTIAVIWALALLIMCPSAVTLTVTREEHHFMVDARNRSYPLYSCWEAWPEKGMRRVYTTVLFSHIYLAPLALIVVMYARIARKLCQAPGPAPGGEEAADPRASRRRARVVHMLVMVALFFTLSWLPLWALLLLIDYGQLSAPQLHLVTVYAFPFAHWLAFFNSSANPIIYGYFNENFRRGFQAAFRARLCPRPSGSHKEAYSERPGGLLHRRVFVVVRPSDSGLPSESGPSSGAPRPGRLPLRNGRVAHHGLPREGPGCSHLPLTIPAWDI
human-type OT7T022 (hOT7T022) G protein-coupled receptor protein (human), sequence (Q9GZQ6 whole entry): as above

Molecule	IC50 [3] [nM]	cAMP production inhibition EC50 [4] [nM]	ED50, inhibition of intracellular cAMP increase by forskolin treatment [5] [nM]	also measured
hRFRP-3 (28) (second row with this label, last row of Table 1) (peptide)	–	–	–	IC50 [1]: 1.6 nM; cAMP production inhibition EC50 [2]: 4.1 nM
PNLPQRF-NH2 [Pro-Asn-Leu-Pro-Gln-Arg-Phe-NH2: hRFRP-3(7)]	0.62	3.2	–	–
ATANLPLRSGRNMEVSLVRRVPNLPQRF-NH2 (also called hRFRP-3 (28)) [human-type RFRP-3(28)]	1.1	5.1	–	–
SVTFQELKDWGAKKDIKMSPAPANKVPHSAANLPLRF (ends and bridges not checked) [rRFRP-1-37]	–	–	30	–
NLPQRF-NH2 [Asn-Leu-Pro-Gln-Arg-Phe-NH2: hRFRP-3(6)]	2.6	37	–	–
SLNFEELKDWGPKNVIKMSTPAVNKMPHSFANLPLRF-NH2 [hRFRP-1-37]	–	–	21	–
MPHSFANLPLRF-NH2 [Met-Pro-His-Ser-Phe-Ala-Asn-Leu-Pro-Leu-Arg-Phe-NH2 (MPHSFANLPLRF amide)]	–	–	4.5	cAMP production inhibitory effect, IC50 [6]: 0.5 nM
PQRF-NH2 [PQRF amide (Pro-Gln-Arg-Phe-NH2)]	–	–	≥ 1000	–
SAGATANLPLRSGRNMEVSLVRRVPNLPQRF-NH2 (also called hRFRP-3 (31)) [human-type RFRP-3(31)]	1.3	4.8	–	–
